B1: STEAP1 (parent)
chain: LWKMKPRRNLEEDDYLHKDTGETS

Variants of: B1
Test: protein stability index of a GFP-peptide fusion (GPS, HEK-293T) (PSI 1-6); higher = more stable
Conditions: c terminus: a fixed tail appended
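Also: lentivirally expressed fusions sorted by FACS into six bins by GFP to DsRed ratio, PSI derived from sequencing read proportions per bin multiplied by bin number.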

| Variant | protein stability index |
| --- | --- |
| LWKMKPRRNLEEDDYLHKDTGEWS | 3.54 |
| LWKMKPRRNLEEDDYLHKDTGEFS | 3.92 |
| LWKMKPRRNLEEDDYLHKDTGEHS | 4.4 |
| LWKMKPRRNLEEDDYLHKDTGECS | 4.05 |
| LWKMKPRRNLEEDDYLHKDTGEDS | 4.59 |
| LWKMKPRRNLEEDDYLHKDTGEIS | 3.53 |
| LWKMEPRRNLEEDDYLHKDTGETS | 4.74 |
| LWKMCPRRNLEEDDYLHKDTGETS | 4.45 |
| LWKMPPRRNLEEDDYLHKDTGETS | 4.91 |
| LWKMNPRRNLEEDDYLHKDTGETS | 4.32 |
| LCKMKPRRNLEEDDYLHKDTGETS | 5.08 |
| LEKMKPRRNLEEDDYLHKDTGETS | 5.45 |
| LWKMKNRRNLEEDDYLHKDTGETS | 4.52 |
| LWKMKRRRNLEEDDYLHKDTGETS | 3.65 |
| LWKMKYRRNLEEDDYLHKDTGETS | 3.96 |
| LWKMKARRNLEEDDYLHKDTGETS | 3.94 |
| LWKLKPRRNLEEDDYLHKDTGETS | 4.55 |
| LWKPKPRRNLEEDDYLHKDTGETS | 4.41 |
| LWKVKPRRNLEEDDYLHKDTGETS | 4.41 |
| LWKSKPRRNLEEDDYLHKDTGETS | 4.69 |
| LWQMKPRRNLEEDDYLHKDTGETS | 4.88 |
| LWVMKPRRNLEEDDYLHKDTGETS | 3.67 |
| LWEMKPRRNLEEDDYLHKDTGETS | 5.19 |
| LWMMKPRRNLEEDDYLHKDTGETS | 4.11 |

| Variant | protein stability index |
| --- | --- |
| LWKMKPRRNLEEDDYLTKDTGETS | 4.82 |
| LWKMKPRRNLEEDDYLAKDTGETS | 4.93 |
| LWKMKPRRNLEEDDYLDKDTGETS | 4.94 |
| LWKMKPRRNLEEDDYLLKDTGETS | 4.09 |
| LWKMKPRRNLEEDDYLHKDCGETS | 4.31 |
| LWKMKPRRNLEEDDYLHKDKGETS | 3.6 |
| LWKMKPRRNLEEDDYLHKDWGETS | 3.85 |
| LWKMKPRRTLEEDDYLHKDTGETS | 4.49 |
| LWKMKPRRDLEEDDYLHKDTGETS | 4.53 |
| LWKMKPRRWLEEDDYLHKDTGETS | 3.08 |
| LWKMKPRRYLEEDDYLHKDTGETS | 4.07 |
| LWKMKPRRNLEEDDYLHKPTGETS | 4.36 |
| LWKMKPRRNLEEDDYLHKLTGETS | 3.33 |
| LWKMKPRRNLEEDDYLHKWTGETS | 2.87 |
| LWKMKPRRNLEEDDYLHKYTGETS | 3.81 |
| LWKMKPRRNLEEDDYLHKETGETS | 4.41 |
| LWKMKPRRNLEEDDYLHKITGETS | 3.46 |
| LWKMKPRRNLAEDDYLHKDTGETS | 3.89 |
| LWKMKPRRNLCEDDYLHKDTGETS | 3.79 |
| LWKMKPRRNLPEDDYLHKDTGETS | 4.2 |
| LWKMKPRRNLEEDGYLHKDTGETS | 4.31 |
| LWKMKPRRNLEEDEYLHKDTGETS | 4.63 |
| LWKMKPRRNLEEDDYLHKDTGETW | 3.5 |
| LWKMKPRRNLEEDDYLHKDTGETR | 3.97 |

| Variant | protein stability index |
| --- | --- |
| LWKMKPRRNLEEDDYLHKDTGETI | 3.96 |
| LWKMKPRRNLEEDDYLHKDTGETA | 4.61 |
| LWKMKPCRNLEEDDYLHKDTGETS | 4.26 |
| LWKMKPSRNLEEDDYLHKDTGETS | 4.58 |
| LWKMKPPRNLEEDDYLHKDTGETS | 4.62 |
| LWKMKPGRNLEEDDYLHKDTGETS | 4.42 |
| LWKMKPRRNLEEDDYRHKDTGETS | 4.1 |
| LWKMKPRRNLEEDDYFHKDTGETS | 4.26 |
| LWKMKPRRNLEEDDYIHKDTGETS | 4.23 |
| LWKMKPRRNLEEDDYLHKDTQETS | 4.33 |
| LWKMKPRRNLEEDDYLHKDTRETS | 3.89 |
| LWKMKPRRNLEEDDYLHKDTLETS | 3.91 |
| LWKMKPRRNLEEDDYLHKDTTETS | 4.49 |
| LWKMKPRRNLEEDDYLHKDTIETS | 3.31 |
| LWKMKPRRNLEEPDYLHKDTGETS | 4.45 |
| LWKMKPRRNLEELDYLHKDTGETS | 3.88 |
| LWKMKPRRNLEERDYLHKDTGETS | 4.15 |
| LWKMKPRRNLEEQDYLHKDTGETS | 4.63 |
| LWKMKPRENLEEDDYLHKDTGETS | 4.83 |
| LWKMKPRHNLEEDDYLHKDTGETS | 4.1 |
| LWKMKPRRNAEEDDYLHKDTGETS | 4.86 |
| LWKMKPRRNTEEDDYLHKDTGETS | 4.69 |
| LWKMKPRRNQEEDDYLHKDTGETS | 4.72 |
| LWKMKPRRNEEEDDYLHKDTGETS | 4.89 |

| Variant | protein stability index |
| --- | --- |
| LWKMKPRRNLEEDDYLHKDTGQTS | 4.11 |
| LWKMKPRRNLEEDDYLHKDTGVTS | 3.86 |
| LWKMKPRRNLEEDDYLHKDTGSTS | 4.08 |
| LWKMKPRRNLEEDDYLHKDTGNTS | 4.22 |
| LWKMKPRRNLEEDDYLHKDTGITS | 3.73 |
| LWKMKPRRNLEEDDYLHKDTGDTS | 4.47 |
| SWKMKPRRNLEEDDYLHKDTGETS | 4.78 |
| VWKMKPRRNLEEDDYLHKDTGETS | 4.69 |
| KWKMKPRRNLEEDDYLHKDTGETS | 4.57 |
| PWKMKPRRNLEEDDYLHKDTGETS | 5.08 |
| LWKMKPRRNLEEDDYLHADTGETS | 5.12 |
| LWKMKPRRNLEEDDYLHHDTGETS | 4.62 |
| LWKMKPRRNLEEDDYLHFDTGETS | 3.38 |
| LWKMKPRRNLEEDDGLHKDTGETS | 4.83 |
| LWKMKPRRNLEEDDFLHKDTGETS | 4.14 |
| LWKMKPRRNLEEDDQLHKDTGETS | 4.92 |
| LWKMKPRRNLEEDDDLHKDTGETS | 5.15 |
| LWKMKPRRNLEEDDWLHKDTGETS | 4.26 |
| LWKMKPRRNLEEDDLLHKDTGETS | 4.33 |
| LWKMKPRRNLEMDDYLHKDTGETS | 3.63 |
| LWKMKPRRNLECDDYLHKDTGETS | 3.96 |
| LWKMKPRRNLEWDDYLHKDTGETS | 3.16 |

Reference: the supplement of paper PMC10567573
